The values that follow come from patent US20110262430A1 (published 2011).

The target of test [1] is T1, Cynomolgus macaque monkey IGF-1R-Fc fusion protein (cynomolgus macaque monkey (Macaca …)).
T1 construct: The entry begins with the native signal peptide; also called recombinant Cynomolgus macaque IGF-1R; recombinant cynomolgus macaque IGF-1R
As to the kind of experiment: binding ELISA: plate coated with recombinant cynomolgus macaque IGF-1R-Fc, antibody titrated, anti-mouse Ig-HRP detection, OD 450nm. As for the experimental part: (§1) 96 well ELISA plates were coated overnight with recombinant Cynomolgus macaque IGF-1R (see Example 4) at 1-2 μg/ml and blocked with 4% BSA/PBS. Purified anti-hIGF-1R antibodies were added and incubated for 1 hour at room temperature. The plates were washed in TBST and HRP conjugated anti mouse Ig (DAKO #P0260) was added to each well at 0.6-1.0 μg/ml. Plates were incubated for 1 hour at room temperature, washed with TBST and developed with OPD substrate (Sigma P9187) or TMB substrate (Sigma T8665). […] For antibodies containing a human IgG1/Cκ constant region, the HRP conjugated anti mouse Ig detection antibody was substituted with a goat anti-human Kappa Light Chains peroxidase conjugate (Sigma, A7164)

The target of test [2] is T1, Cynomolgus macaque monkey IGF-1R-Fc …. As to the kind of experiment: binding ELISA: plate coated with recombinant cynomolgus macaque IGF-1R-Fc, antibody titrated, anti-human kappa light chain-HRP detection, OD 490nm. As for the experimental part: as §1
The target in test [3] is T2, His-tagged FcγRIIIa (F variant) extracellular domain (Heterogeneously glycosylated.).
T2 construct: also called FcγRIIIa (Phe); FcγRIIIa (Phe variant)
As to the kind of experiment: Biacore T100, His-tagged FcγRIIIa captured on anti-polyhistidine antibody, antibody injected 2-512 nM, 25°C, 1:1 model. As for the experimental part: (§2) Qiagen anti-polyhistidine antibody (Cat No. 34670) was immobilised on CM5 biosensor chip using standard NHS/EDC activation, the antibody was diluted to 50 ug/ml in acetate pH4.0 buffer and passed over the activated surface for 20 minutes at 5 ul/minute, the surface was then blocked with ethanolamine. Prior to use the chip was conditioned by performing several regeneration steps using 100 mM phosphoric acid.
(§3) For analysis of the interaction of the FcγRIIIa with various antibody constructs, the poly-histidine tagged receptors were captured to around 20 RU's. […] Regeneration was carried out using 100 mM phosphoric acid following each antibody/buffer injection. The run was carried out using HBS-EP buffer and carried out at 25° C. on a T100 Biacore machine. The data was analysed using the analysis software inherent to the machine using the 1:1 and Bivalent models.
(Surface plasmon resonance follows binding to a sensor surface in real time, without labels.)

Test [4] addresses T3, His-tagged FcγRIIIa (V variant) extracellular domain (Heterogeneously glycosylated.).
T3 construct: also called FcγRIIIa (Val); FcγRIIIa (Val variant)
The description is as above. As for the experimental part:
as §2, §3

Test [5] concerns the target T2, His-tagged FcγRIIIa (F variant) …. As to the kind of experiment: Biacore T100, His-tagged FcγRIIIa captured on anti-polyhistidine antibody, antibody injected 2-512 nM, 25°C, Bivalent model. As for the experimental part:
as §2, §3

The target in test [6] is T3, His-tagged FcγRIIIa (V variant) …. Described as above. As for the experimental part:
as §2, §3

T2 sequence (chain, as listed by the source mutant limits assumed): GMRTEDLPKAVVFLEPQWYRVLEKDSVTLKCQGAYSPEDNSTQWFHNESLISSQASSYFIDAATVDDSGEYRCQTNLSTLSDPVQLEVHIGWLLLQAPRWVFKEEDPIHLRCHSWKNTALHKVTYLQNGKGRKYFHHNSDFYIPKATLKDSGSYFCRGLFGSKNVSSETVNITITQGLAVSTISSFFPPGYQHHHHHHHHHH
T1 sequence (chain, as listed by the source limits assumed): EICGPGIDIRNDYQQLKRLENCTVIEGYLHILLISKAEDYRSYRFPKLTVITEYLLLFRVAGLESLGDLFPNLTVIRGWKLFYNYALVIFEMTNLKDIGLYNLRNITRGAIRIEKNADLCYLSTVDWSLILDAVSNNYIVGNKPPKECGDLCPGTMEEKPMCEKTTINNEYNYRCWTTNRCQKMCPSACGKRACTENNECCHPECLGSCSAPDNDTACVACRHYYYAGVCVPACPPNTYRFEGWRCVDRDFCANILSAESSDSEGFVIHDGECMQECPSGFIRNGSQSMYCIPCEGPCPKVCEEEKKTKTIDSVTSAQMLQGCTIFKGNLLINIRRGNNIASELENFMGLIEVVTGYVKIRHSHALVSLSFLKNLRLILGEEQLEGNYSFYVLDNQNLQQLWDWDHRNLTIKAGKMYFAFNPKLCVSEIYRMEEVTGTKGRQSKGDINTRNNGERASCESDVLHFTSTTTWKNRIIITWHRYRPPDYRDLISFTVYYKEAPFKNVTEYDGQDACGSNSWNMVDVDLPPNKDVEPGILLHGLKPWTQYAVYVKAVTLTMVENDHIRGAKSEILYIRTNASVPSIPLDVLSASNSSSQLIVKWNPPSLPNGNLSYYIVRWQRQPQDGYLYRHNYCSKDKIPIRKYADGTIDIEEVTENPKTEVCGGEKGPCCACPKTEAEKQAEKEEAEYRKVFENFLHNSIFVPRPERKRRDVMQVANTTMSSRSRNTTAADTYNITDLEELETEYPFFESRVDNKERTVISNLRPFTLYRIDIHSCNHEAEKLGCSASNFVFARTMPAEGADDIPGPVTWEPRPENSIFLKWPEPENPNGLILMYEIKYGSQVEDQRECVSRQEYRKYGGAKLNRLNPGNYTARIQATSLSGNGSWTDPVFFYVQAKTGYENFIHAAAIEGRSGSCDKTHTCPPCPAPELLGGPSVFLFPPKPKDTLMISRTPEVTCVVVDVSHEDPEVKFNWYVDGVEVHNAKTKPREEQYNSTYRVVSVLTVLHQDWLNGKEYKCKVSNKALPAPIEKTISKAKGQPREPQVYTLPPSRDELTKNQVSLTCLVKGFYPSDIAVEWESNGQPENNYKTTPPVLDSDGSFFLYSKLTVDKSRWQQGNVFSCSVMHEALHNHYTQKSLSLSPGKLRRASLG
T3 sequence (chain, as listed by the source mutant limits assumed): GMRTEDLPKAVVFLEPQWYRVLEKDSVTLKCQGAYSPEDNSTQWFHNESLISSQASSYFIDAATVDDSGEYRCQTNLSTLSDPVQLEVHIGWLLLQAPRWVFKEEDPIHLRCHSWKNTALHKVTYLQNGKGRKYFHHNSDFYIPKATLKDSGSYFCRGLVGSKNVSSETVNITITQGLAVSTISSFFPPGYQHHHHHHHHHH

B1: 6E11 murine monoclonal antibody (antibody, V domains shown)
VH: EVQLQQSGPELVKPGASVRISCKASGYAFTDYYMNWVKQSHGKSLEWVANINPNNGGTNYNQKFKDKATLTVDKSSNTAYMELRSLTSEDTAVYYCARWILYYGRSKWYFDVWGTGTTVTVSS
VL: DVLMTQTPLSLPVSLGDHASISCRSSQSIVQSNGDTYLEWYLQKPGQSPKLLIYRISNRFSGVPDRFSGSGSGTDFTLKISRVEAEDLGVYYCFQGSHVPYTFGGGTKLEIKR
notes: Murine hybridoma antibody; Constant regions are murine IgG1/K or IgG2b/K; also called 6E11 parental; 6E11 mouse parental antibody
Turning to B1, the concentration giving a half-maximal response (EC50 (read off the curve)) in test [1] was around 0.04 µg/mL.

B2: 5G4 murine monoclonal antibody (antibody, V domains shown)
VH: EVQLQQSGPELVKPGASVKISCKASGYAFTDYYMNWVKQTHGRSLEWMANINPNTGGTNYNQKFRGKATLTVDKSSTTAYMELRSLTSEDSAVYYCARWILYYGSSRWYFDVWGTGTTVTVSS
VL: DVLMTQTPLSLPVSLGDQASISCRSSQTIVHSNGNTYLEWYLQKPGQSPKLLIYKVSNRFSGVPDRFSGSGSGTDFTLKISRVEAEDLGIYYCFQGSHVPYTFGGGTKLEIKR
notes: Murine hybridoma antibody; murine constant regions not specified
Consider B2, for which, in test [1], the “EC50 (read off the curve)” value is around 0.1 µg/mL.

B3: 15D9 murine monoclonal antibody (antibody, V domains shown)
VH: EVQLQQSGPELVKPGASVKISCKASGYAFTDYYMNWVKQSHGKSLEWMANINPNTGGTNYNQKFTGKATLTVDKSSTTAYMELRSLTSEDSAVYYCTRWILYYGSSKWYFDVWGTGTTVTVSS
VL: DVLMTQTPLSLPVSLGDQASISCRSSQTIVHSNGNTYLEWYLQKPGQSPKLLIYRVSYRFSGVPDRFSGSGSGTDFTLKISRLEAEDLGIYYCFQGSHVPYTFGGGTKLEIKR
notes: as for B2
In the case of B3, the binding result in test [1] is given as “binds”.

B4: H0L0 humanised antibody (wild type human IgG1) (antibody)
heavy: not shown
light: DIVMTQSPLSLPVTPGEPASISCRSSQSIVQSNGDTYLEWYLQKPGQSPQLLIYRVSNRFSGVPDRFSGSGSGTDFTLKISRVEAEDVGVYYCFQGSHVPYTFGQGTKLEIKRTVAAPSVFIFPPSDEQLKSGTASVVCLLNNFYPREAKVQWKVDNALQSGNSQESVTEQDSKDSTYSLSSTLTLSKADYEKHKVYACEVTHQGLSSPVTKSFNRGEC
On to B4, for which the binding result in test [2] is reported as “binds”.

B5: IGF1R-F (anti-IGF-1R H0L0 IgG1, wild type constant region, FUT8 deleted CHO DG44) (antibody)
heavy: not shown
light: DIVMTQSPLSLPVTPGEPASISCRSSQSIVQSNGDTYLEWYLQKPGQSPQLLIYRVSNRFSGVPDRFSGSGSGTDFTLKISRVEAEDVGVYYCFQGSHVPYTFGQGTKLEIKRTVAAPSVFIFPPSDEQLKSGTASVVCLLNNFYPREAKVQWKVDNALQSGNSQESVTEQDSKDSTYSLSSTLTLSKADYEKHKVYACEVTHQGLSSPVTKSFNRGEC
modifications: N-glycan fucose negative (all oligosaccharide species obtained from the sample are fucose negative)
notes: Same chains as IGF1R-E; differs by the host cell line; Campath leader left out
Take B5: the Kd in test [3] is 59.6 nM; in test [4], 12.1 nM; in test [5] it was 131 nM; in test [6], 146 nM.

B6: H1L0 humanised antibody (wild type human IgG1) (antibody)
heavy: not shown
light: DIVMTQSPLSLPVTPGEPASISCRSSQSIVQSNGDTYLEWYLQKPGQSPQLLIYRVSNRFSGVPDRFSGSGSGTDFTLKISRVEAEDVGVYYCFQGSHVPYTFGQGTKLEIKRTVAAPSVFIFPPSDEQLKSGTASVVCLLNNFYPREAKVQWKVDNALQSGNSQESVTEQDSKDSTYSLSSTLTLSKADYEKHKVYACEVTHQGLSSPVTKSFNRGEC
In the case of B6, in test [2], the binding result is “binds”.

B7: IGF1R-G (anti-IGF-1R H0L0 IgG1 with S239D/I332E, CHO-E1a) (antibody)
heavy: not shown
light: DIVMTQSPLSLPVTPGEPASISCRSSQSIVQSNGDTYLEWYLQKPGQSPQLLIYRVSNRFSGVPDRFSGSGSGTDFTLKISRVEAEDVGVYYCFQGSHVPYTFGQGTKLEIKRTVAAPSVFIFPPSDEQLKSGTASVVCLLNNFYPREAKVQWKVDNALQSGNSQESVTEQDSKDSTYSLSSTLTLSKADYEKHKVYACEVTHQGLSSPVTKSFNRGEC
notes: Campath leader left out
As to B7, the Kd in test [3] worked out at 14.9 nM; in test [4], 7.27 nM; in test [5], 88.9 nM; in test [6] it was 68.8 nM.

B8: H1L0 IgG1m(AA) (antibody)
heavy: not shown
light: DIVMTQSPLSLPVTPGEPASISCRSSQSIVQSNGDTYLEWYLQKPGQSPQLLIYRVSNRFSGVPDRFSGSGSGTDFTLKISRVEAEDVGVYYCFQGSHVPYTFGQGTKLEIKRTVAAPSVFIFPPSDEQLKSGTASVVCLLNNFYPREAKVQWKVDNALQSGNSQESVTEQDSKDSTYSLSSTLTLSKADYEKHKVYACEVTHQGLSSPVTKSFNRGEC
notes: also called H10L0 IgG1m(AA) (as misprinted in several captions)
B8: the binding result in test [2] is on record as “binds”.

B9: IGF1R-H (anti-IGF-1R H0L0 IgG1 with S239D/I332E, FUT8 deleted CHO DG44) (antibody)
heavy: not shown
light: DIVMTQSPLSLPVTPGEPASISCRSSQSIVQSNGDTYLEWYLQKPGQSPQLLIYRVSNRFSGVPDRFSGSGSGTDFTLKISRVEAEDVGVYYCFQGSHVPYTFGQGTKLEIKRTVAAPSVFIFPPSDEQLKSGTASVVCLLNNFYPREAKVQWKVDNALQSGNSQESVTEQDSKDSTYSLSSTLTLSKADYEKHKVYACEVTHQGLSSPVTKSFNRGEC
modifications: N-glycan from FUT8 deleted CHO DG44 host (glycoengineered)
notes: Same chains as IGF1R-G; differs by the host cell line; Campath leader left out
Consider B9, for which the Kd in test [3] turned out to be 1.11 nM; in test [4] it was 0.832 nM; in test [5], 51.7 nM; in test [6], 2.7 nM.

B10: H0L0 IgG1m(AA) (antibody)
heavy: not shown
light: DIVMTQSPLSLPVTPGEPASISCRSSQSIVQSNGDTYLEWYLQKPGQSPQLLIYRVSNRFSGVPDRFSGSGSGTDFTLKISRVEAEDVGVYYCFQGSHVPYTFGQGTKLEIKRTVAAPSVFIFPPSDEQLKSGTASVVCLLNNFYPREAKVQWKVDNALQSGNSQESVTEQDSKDSTYSLSSTLTLSKADYEKHKVYACEVTHQGLSSPVTKSFNRGEC
In the case of B10, in test [2], the binding result is “binds”.

B11: CD20-B (anti-CD20 IgG1, wild type constant region, FUT8 deleted CHO DG44) (antibody)
heavy: not shown
light: QIVLSQSPAILSASPGEKVTMTCRASSSVSYIHWFQQKPGSSPKPWIYATSNLASGVPVRFSGSGSGTSYSLTISRVEAEDAATYYCQQWTSNPPTFGGGTKLEIKRTVAAPSVFIFPPSDEQLKSGTASVVCLLNNFYPREAKVQWKVDNALQSGNSQESVTEQDSKDSTYSLSSTLTLSKADYEKHKVYACEVTHQGLSSPVTKSFNRGEC
modifications: The Fc N-glycan is expected to lack fucose (host: FUT8 deleted CHO DG44). The letters cannot carry this.
In the case of B11, the Kd in test [3] worked out at 20.7 nM; in test [4], 5.9 nM; in test [5], 75.6 nM; in test [6], 74.1 nM.

B12: CD20-A (anti-CD20 IgG1, wild type constant region, CHO-E1a) (antibody)
heavy: not shown
light: QIVLSQSPAILSASPGEKVTMTCRASSSVSYIHWFQQKPGSSPKPWIYATSNLASGVPVRFSGSGSGTSYSLTISRVEAEDAATYYCQQWTSNPPTFGGGTKLEIKRTVAAPSVFIFPPSDEQLKSGTASVVCLLNNFYPREAKVQWKVDNALQSGNSQESVTEQDSKDSTYSLSSTLTLSKADYEKHKVYACEVTHQGLSSPVTKSFNRGEC
As to B12, the Kd in test [4] is 39.5 nM; in test [5] it was 78.2 nM; in test [6], 274 nM.

A word on the EC50 (read off the curve): it is the midpoint of the concentration-response curve.
